Data published in US20100273722.
No end group written: not given here.

B1: aPP^F20A (peptide)
chain: GPSQPTYPGDDAPVEDLIRAYDNLQQYLNVVTRHRY-NH2
B2: aPP^Y7AP13VV14P (peptide)
chain: GPSQPTAPGDDAVPEDLIRFYDNLQQYLNVVTRHRY-NH2
B3: aPP^Y7AQ25R (peptide)
chain: GPSQPTAPGDDAPVEDLIRFYDNLRQYLNVVTRHRY-NH2
B4: aPP^Y7AT6E (peptide)
chain: GPSQPEAPGDDAPVEDLIRFYDNLQQYLNVVTRHRY-NH2
B5: avian pancreatic polypeptide (aPP) (peptide)
chain: GPSQPTYPGDDAPVEDLIRFYDNLQQYLNVVTRHRY
modifications: ends and bridges not checked
B6: aPP^Y7A (peptide)
chain: GPSQPTAPGDDAPVEDLIRFYDNLQQYLNVVTRHRY-NH2
B7: aPP^Y21A (peptide)
chain: GPSQPTYPGDDAPVEDLIRFADNLQQYLNVVTRHRY-NH2
B8: aPP^Y7AP13SV14P (peptide)
chain: GPSQPTAPGDDASPEDLIRFYDNLQQYLNVVTRHRY-NH2

Tests used:
[1] = sedimentation equilibrium AUC, self-association, 25 C
[2] = sedimentation equilibrium AUC, self-association, 5 C
[3] = sedimentation equilibrium AUC, self-association, 10 C
[4] = sedimentation equilibrium AUC, self-association, 15 C
[5] = sedimentation equilibrium AUC, self-association, 20 C
[6] = sedimentation equilibrium AUC, self-association, 30 C

Protein	% monomer at 30 µM [1]	further results
B1	100%	–
B2	90%	–
B3	78%	–
B4	79%	–
B5	23%	–
B6	98%	–
B7	14%	–
B8	–	% monomer at 30 micromolar total peptide [2]: 74%; % monomer at 30 micromolar total peptide [3]: 82%; % monomer at 30 micromolar total peptide [4]: 84%; % monomer at 30 micromolar total peptide [5]: 90%; % monomer at 30 micromolar total peptide [1]: 90%; % monomer at 30 micromolar total peptide [6]: 98%
